Source: PMC10144703, “Molecular Mechanism of Sirtuin 1 Inhibition by Human Immunodeficiency Virus 1 Tat Protein” (Life, 2023)

Tests used:
[1] = biological target: T1, human full-length Sirt1 (fl-Sirt1) (Homo sapiens, UniProt Q96EB6); test: FdL deacetylation assay, fl-Sirt1; type: biochemical; conditions: Figure 1D,E; compared with Sirt2 and Sirt3
T1 construct: human full-length Sirt1 (fl-Sirt1) in pET-15b; made in house; host or cells: E. coli CodonPlus(DE3)
T1 sequence (Q96EB6 1-747): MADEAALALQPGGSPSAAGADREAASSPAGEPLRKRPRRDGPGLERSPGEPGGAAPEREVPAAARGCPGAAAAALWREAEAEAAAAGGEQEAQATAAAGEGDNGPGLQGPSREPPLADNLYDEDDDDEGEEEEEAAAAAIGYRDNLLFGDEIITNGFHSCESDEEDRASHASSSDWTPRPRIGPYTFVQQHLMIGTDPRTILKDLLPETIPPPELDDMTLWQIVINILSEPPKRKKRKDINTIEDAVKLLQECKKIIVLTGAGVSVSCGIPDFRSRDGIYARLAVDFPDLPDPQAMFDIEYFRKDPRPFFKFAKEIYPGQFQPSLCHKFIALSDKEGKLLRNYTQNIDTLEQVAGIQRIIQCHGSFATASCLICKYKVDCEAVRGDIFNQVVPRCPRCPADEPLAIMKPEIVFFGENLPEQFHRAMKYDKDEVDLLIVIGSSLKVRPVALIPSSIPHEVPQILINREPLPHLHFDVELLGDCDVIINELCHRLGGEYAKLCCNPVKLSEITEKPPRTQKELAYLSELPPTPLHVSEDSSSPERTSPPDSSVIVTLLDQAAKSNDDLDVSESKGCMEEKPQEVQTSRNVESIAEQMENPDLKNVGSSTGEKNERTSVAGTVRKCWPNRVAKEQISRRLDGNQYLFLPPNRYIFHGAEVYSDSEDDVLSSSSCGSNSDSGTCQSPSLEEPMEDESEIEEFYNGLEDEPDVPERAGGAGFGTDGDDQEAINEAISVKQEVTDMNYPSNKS
From the text: A human mini-Sirt1 construct (aa 183-505-(GGGS)2-641-665), as described in [27], was generated in a modified pET-19b with a TEV cleavage site. This construct and human full-length Sirt1 (fl-Sirt1) in pET-15b, Sirt1-(183-664) and Sirt1-(214-664) in pET-15b, mini-Sirt1-∆SBD (aa 214-505-(GGGS)2-641-665) and mini-Sirt1-∆ESA (aa 183–505) in a modified pET-19b with TEV cleavage site, Sirt2-(43-356) in a modified pET-19b with a His6-Sumo tag, Sirt3-(93-399) in a modified pET-32a with Trx-His6 tag and TEV cleavage site, hSirt3-(118-399) in pVFT3S (Sungkyunkwan University, Seoul, Republic of Korea) with His6-Trx tag and TEV cleavage site, Sirt5-(34-302) in pET-151/D-TOPO, and Sirt6-(1-355) in pQE80L.1 were purified as described. Shortly, proteins were expressed at 20 °C (mini-Sirt1 constructs at 16 °C) in E. coli CodonPlus(DE3), cell lysates were cleared by centrifugation, and proteins were purified via affinity chromatography using a nickel NTA column. After digestion with thrombin or TEV protease, proteins were re-run over the nickel NTA column, pooled, and concentrated. The samples were, then, subjected either directly to size exclusion chromatography in 50 mM Tris/HCl, pH 8.0, 150 mM NaCl, 1 mM TCEP, or to an ion exchange chromatography followed by size exclusion chromatography. […]

human Sirt3 = biological target: T2, human Sirt3 (Homo sapiens, UniProt Q9NTG7); test: Continuous coupled enzymatic assay, Sirt3; type: biochemical; conditions: 65 μM Tat-Cys^−, acetylated peptide at substrate Km, n = 3
T2 construct: Sirt3-(93-399) in a modified pET-32a; Trx-His6 (cleaved yes); made in house; host or cells: E. coli CodonPlus(DE3)
T2 sequence (Q9NTG7 93-399): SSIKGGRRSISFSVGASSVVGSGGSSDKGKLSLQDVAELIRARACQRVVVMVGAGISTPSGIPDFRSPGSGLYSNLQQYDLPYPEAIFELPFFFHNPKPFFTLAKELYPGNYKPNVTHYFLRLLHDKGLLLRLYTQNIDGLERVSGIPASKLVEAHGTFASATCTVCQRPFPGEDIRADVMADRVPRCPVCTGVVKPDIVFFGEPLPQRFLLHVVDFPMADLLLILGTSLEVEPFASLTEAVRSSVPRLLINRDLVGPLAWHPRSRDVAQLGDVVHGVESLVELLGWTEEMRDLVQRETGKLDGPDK
From the text: A human mini-Sirt1 construct (aa 183-505-(GGGS)2-641-665), as described in [27], was generated in a modified pET-19b with a TEV cleavage site. This construct and human full-length Sirt1 (fl-Sirt1) in pET-15b, Sirt1-(183-664) and Sirt1-(214-664) in pET-15b, mini-Sirt1-∆SBD (aa 214-505-(GGGS)2-641-665) and mini-Sirt1-∆ESA (aa 183–505) in a modified pET-19b with TEV cleavage site, Sirt2-(43-356) in a modified pET-19b with a His6-Sumo tag, Sirt3-(93-399) in a modified pET-32a with Trx-His6 tag and TEV cleavage site, hSirt3-(118-399) in pVFT3S (Sungkyunkwan University, Seoul, Republic of Korea) with His6-Trx tag and TEV cleavage site, Sirt5-(34-302) in pET-151/D-TOPO, and Sirt6-(1-355) in pQE80L.1 were purified as described. […]
Continuous coupled enzymatic sirtuin activity assays were conducted as described. […] Reactions were monitored for 1 h at room temperature by absorption spectroscopy at 340 nm in a UV/vis plate reader (BioTek). The slope for the linear range (typically 5–25 min) was evaluated after background correction with measurements without NAD^+. Additional control reactions were run by either omitting enzyme or omitting peptide substrate to ensure that the signal measured reflects the NAD+-dependent deacetylation activity of the sirtuin.

B1: Tat-Cys^−: Recombinant 86-residue HIV1 Zaire 2 Tat with C22S, C25A, C27A, C30S, C31A, C34S, and C37A (protein)
chain: MDPVDPNIEPWNHPGSQPKTASNRAHAKKSAYHSQVAFITKGLGISYGRKKRRQRRRPSQGGQTHQDPIPKQPSSQPRGDPTGPKE
**Q.** With B1 as the molecule, how does the “relative isoform inhibition, Sirt1 vs other isoforms” value [1] read?
**A.** Its value is “slightly more potent inhibition of this isoform”.

**Q.** What about the “inhibitory effect on Sirt3, continuous assay” value (human Sirt3) of the same molecule?
**A.** The value was “pronounced inhibitory effects”.
